The text below walks through data of paper PMC10801922 (Proceedings of the National Academy of Sciences of the …, 2024).

Experiment [1] has as its target T1, SARS-CoV-2 G614 (wild-type) receptor-binding domain (SARS-CoV-2, UniProt P0DTC2).
T1 construct: also called RBD of G614; G614 RBD
The experiment can be described thus: ELISA. The following applies: both partners purified. On the technique in general: In an ELISA, binding on a coated surface is turned into a signal by an enzyme label.

In experiment [2] the target is T1, SARS-CoV-2 G614 (wild-type) ….
Experiment [3] addresses SARS-CoV-2 Alpha (B.1.1.7) receptor-binding domain (SARS-CoV-2 Alpha (B.1.1.7), strain).
In experiment [4] the target is SARS-CoV-2 Delta (B.1.617.2) receptor-binding domain (SARS-CoV-2 Delta (B.1.617.2), strain).

B1: XG014 IgG (antibody, V domains shown)
VH: EVQLVQSGAEVKKPGESLKISCKGSGYSFSNYWIGWVRHMPGKGLEWMGIIYPGDSDTRYSPSFQGQVTISVDTSISTAYLQWSSLKASDTAMYYCTRHQYGYNYGYFYYYIDVWGKGTTVTVSS
VL: QSVLTQPPSVSAAPGQKVTISCSGSSSNIGNNPVSWYRQVPGTAPKLLIYDNNKRPSGIPDRFSGSKSGASATLGITGLQTGDEADYYCGTWHTSLSSGVFGGGTKLTVL
notes: also called parental IgG; source: recombinant
For the molecule B1, the binding result in experiment [1] is on record as “binds”.

B2: 01A05 (antibody, V domains shown)
VH: QVQLVQSGAEVKKPGASVKVSCKASGYTFTSYGISWVRQAPGQGLEWMGWISADNGNTNYAQKLQGRVTMTTDTSTSTAYMELRSLRSDDTAVYYCARVPMFVVPNCSGGGCYRRAWEAGLDVWGQGTTVTVSS
VL: DIQMTQSPSSLSASVGDRVTITCRASQSISNYLNWYQQRPGRAPKLLIYTTSNLQSGVPSRFSGSGSGTDFTLTISSLQPEDFATYFCQQSFTGTFGGGTKVEIK
Turning to B2, the dissociation constant (Kd) – broadly, the constant that tells how readily two partners part at equilibrium – in experiment [2] worked out at 2.5 nM. Besides, the binding result in experiment [3] and in experiment [4] was “binds” each time.

B3: rmAb23 (antibody, V domains shown)
VH: EVQLVESGGGLIQPGGSLRLSCAASGFTVSSNYMSWVRQAPGKGLEWVAVIYSGGSTDYADSVKGRFTISRDNSKNTLHLQMNSLRAEDTAVYYCARDLVVYGMDVWGQGTTVTVSS
VL: DIQLTQSPSFLSASVGDRVTITCRASQGISSYLAWYQQKPGKAPKLLIYAASTLQSGVPSRFSGSGSGTEFTLTISSLQPEDFATYYCQQLNSYPLTFGPGTKVDIK
Take B3: in experiment [2], binding was characterised by a dissociation constant (Kd) of 6.5 nM. Besides, the binding result in experiment [3] and in experiment [4] was “binds” each time.
